Measured values from paper PMC11360004.

Columns and labels:
[1] = biological target: Kelch-like ECH-associated protein 1 (Keap1), Cy3-labeled (UniProt Q14145); assay: MST; Monolith NT.115; Cy3-labeled Keap1 at constant concentration, MNT titrated; 25 mM sodium phosphate, 150 mM NaCl, pH 8.0
[2] = biological target: α/β importin complex labeled with Cy3 (UniProt Q14974); assay: MST; Cy3-labeled β-importin in the α/β importin complex at constant concentration, MNT titrated; 20 mM HEPES, 110 mM KCl, 5 mM NaHCO3, 5 mM MgCl2, 0.1 mM CaCl2, 1 mM EGTA, 1 mM DTT, pH 7.4
UniProt Q14974, sequence (Q14974 whole entry, looked up, one chain of several): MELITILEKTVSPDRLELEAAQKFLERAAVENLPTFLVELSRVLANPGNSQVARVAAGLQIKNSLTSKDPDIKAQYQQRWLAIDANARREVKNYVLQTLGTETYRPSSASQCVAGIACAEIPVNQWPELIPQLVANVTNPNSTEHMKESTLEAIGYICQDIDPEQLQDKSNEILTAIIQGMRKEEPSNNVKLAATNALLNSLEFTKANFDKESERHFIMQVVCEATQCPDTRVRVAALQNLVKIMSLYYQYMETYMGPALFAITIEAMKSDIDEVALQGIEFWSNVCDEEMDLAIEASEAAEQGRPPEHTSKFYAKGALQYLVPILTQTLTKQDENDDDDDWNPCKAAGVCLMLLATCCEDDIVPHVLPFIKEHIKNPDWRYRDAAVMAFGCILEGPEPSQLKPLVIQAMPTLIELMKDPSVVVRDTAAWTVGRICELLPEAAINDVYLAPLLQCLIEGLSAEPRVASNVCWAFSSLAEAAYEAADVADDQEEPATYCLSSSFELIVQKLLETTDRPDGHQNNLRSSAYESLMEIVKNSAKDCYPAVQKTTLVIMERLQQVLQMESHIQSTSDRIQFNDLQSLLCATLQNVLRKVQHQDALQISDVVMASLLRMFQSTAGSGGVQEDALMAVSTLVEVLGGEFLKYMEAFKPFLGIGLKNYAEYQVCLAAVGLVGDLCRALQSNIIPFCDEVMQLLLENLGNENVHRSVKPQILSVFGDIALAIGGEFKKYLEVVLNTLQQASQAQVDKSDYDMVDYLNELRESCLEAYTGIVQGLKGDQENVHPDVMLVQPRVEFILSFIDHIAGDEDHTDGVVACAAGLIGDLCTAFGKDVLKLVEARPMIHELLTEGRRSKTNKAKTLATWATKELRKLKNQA

[3] = biological target: epidermal growth factor receptor (EGFR) on A431 cells (human (endogenous in A431)) (UniProt P00533); assay: fluorescent-labeled ligand competitive binding on cells (plate reader); A431 cells fixed with 0.5% paraformaldehyde in 48-well plates; 25 nM Alexa-647-labeled MNT1 and different concentrations of MNTC or MNTN; DMEM with 1% BSA, 15 mM HEPES, pH 7.3, overnight at +4 °C

UniProt Q14145, sequence (Q14145 whole entry): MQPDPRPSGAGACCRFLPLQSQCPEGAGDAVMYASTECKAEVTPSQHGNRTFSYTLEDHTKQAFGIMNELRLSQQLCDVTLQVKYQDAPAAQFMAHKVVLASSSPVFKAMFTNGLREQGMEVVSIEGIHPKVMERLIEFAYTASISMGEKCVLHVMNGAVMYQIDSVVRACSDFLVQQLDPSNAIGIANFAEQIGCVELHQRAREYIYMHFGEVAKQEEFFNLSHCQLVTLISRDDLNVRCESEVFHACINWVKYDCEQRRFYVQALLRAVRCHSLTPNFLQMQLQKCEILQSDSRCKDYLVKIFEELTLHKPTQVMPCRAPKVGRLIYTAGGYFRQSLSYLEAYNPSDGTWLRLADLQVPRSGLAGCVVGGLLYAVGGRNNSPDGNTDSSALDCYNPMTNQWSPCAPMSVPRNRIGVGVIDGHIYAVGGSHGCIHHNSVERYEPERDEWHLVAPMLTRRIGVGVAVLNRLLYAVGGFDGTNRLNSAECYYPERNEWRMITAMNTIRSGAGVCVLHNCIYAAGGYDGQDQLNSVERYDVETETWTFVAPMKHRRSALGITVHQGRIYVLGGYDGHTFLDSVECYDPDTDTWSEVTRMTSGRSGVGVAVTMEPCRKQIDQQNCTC

Substance	Kd [1]	Kd [2]	Kd [3]
DTox-HMPN-NLS-EGF (modular nanotransporter with the N-terminal fragment of HMP) (from UniProt P24232 1-136)	428 nM	160 nM	20 nM
DTox-HMP-NLS-EGF (original modular nanotransporter with full-size HMP carrier module) (from UniProt P24232 1-396)	205 nM	–	–
